Protein production data for 22 sequences are collected here from a protein production outcome set (Wang et al. 2014).
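Further: failed if final PepcDB status was selected cloned or expressed and not failed if soluble or beyond.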

A short description of this data set: label from the status in PepcDB records.
Turning to “MQKPHLLITSAGRRAKLVEYFVKEFKTGRVSTADCSPLASALYMADQHYIVPKIDEVEYIDHLLTLCQDEGVTALLTLIDPELGLLAQATERFQAIGVTVIVSPYAACELCFDKYTMYEYCLRQGIAHARTYATMASFEEALAAGEVQLPVFVKPRNGSASIEVRRVETVEEVEQLFSKNTDLIVQELLVGQELGVDAYVDLISGKVTSIFIKEKLTMRAGETDKSRSVLRDDVFELVEHVLDGSGLVGPLDFDLFDVAGTLYLSEINPRFGGGYPHAYECGVNFPAQLYRNLMHEINVPQIGQYLDDIYMLKHDTVTLISAAELQKIKR”, the protein production entry is “not failed”.

Take “MQKVEGIIFDMDGVLFDSERISLEFWMETFEKYGYTMTKEIYTSVMGRNRKGIIEGLTDIYDSSVPIIDLYDEKTKNMIEFMERKGAPIKLGVNELISFLKENGYKMAVATSTKRERAVKRLAKANLKDYFDAIVCGDDVVNSKPNPEIFLKAAKKINVNPKNCIVIEDSPMGVEAAYNGGIRCINVPDLKEPDEQIKSQSHKILENLLEVREYLKSLNSKECHNL”: the protein production result is reported as “failed”.

Take “MQLAINKIYRRIFISMDTGVSDHGIEIIGVDPIPGTSRIMGPWKMTVFWSMASASALTPLIGYLLYPLGLIDMLIAISIAFLIGFVPVGIFSEMGRTIPVPAMIISRKTLGYASSSVMSLIFTFVNLGWFGLNDITGGLILASVTSSSPIIWISFMAIVQIMLVLFGAKYLEKFYRYTAILLVFSYGILTYLLFRVYRPDMYAVLHPSTAVNWGSAIGLVLAFSILAWAYKVSTISRFARKREAGEPALERSGFFMAPSIGIIVPVYVMGSLGLISEAAAENWNLAAVRFSGLGSIGGAVAIIASIGASLAIIHTNSMNLYPATADLLSAIEGLFNKRLRKFAQPISTAILGTLGAVLAYAGILNYASGFLNLSGSIIFPFTFVLIADWFMMNRHSANSADFYSIPKNGLGNVNLAGISGLIVGVILNLIHINLLNALFLYVPQDIFGSLAGTAVFILVLKAVQKKQAAQEENRSDTVAE”: the protein production result is “failed”.

For “MQLEHILRSYARYAPVYDHTFGWLLNFRGRSLAAHLTNRRPGRILEVGVGTGISLPFYRKEHQVHGIDISPHMLERARRRVHSKNLDHVVRLEIMDAREMAFPDDYFDAVVAAYVMSVVPEPQRVLREIERVCKAGGDVIIVNHFAADKKGTRRHFEALLSPLSHKLGWRPDMPIDEILAHTSLHEVRRQTLPPMGLFTLLHLKKASPDFADPARP”, the protein production entry is on record as “failed”.

In the case of “MQLESLYQFLYSVVMSYLVSLKYVSFVLISVILVFRKIIRTVKGGRFRRYSIFIPPILYILFSIAVSYGTSLLGIVLSLIAFVFGIYISFHTTRSIVFFSKNNILYYKRPGWVVAIWSLAFLTRLALILFFPSFNGDLFTVLLFLASGLIIGESFWIVRKNREILSTVRMPKIHL”, the protein production result is “failed”.

Turning to “MQLIGDTPITYRRYSMSSSQNALVLIARILLSFIFIYSGFGKLTDPAGTAGMIAGAGMPAATALAYLAGLFELVAGLAILAGFQTKIAAWALAVFCVFTGLVFHSGTVAVPGWPEPALGWINTLNGIMMMKNITLAGAYILLATFGAGAYSVDAKRGFVAARA”, the protein production result is reported as “failed”.

As for “MQLQTEVKKQPSKRKFKMPDAYVLLFFIALLCAIATYFVPAGEFKRVTNRTVTTTIPGSYHSVPQSPVGFVSFFTAIEKGMTLAAPIIFLILFTGGAIAILEKTGALDGLIYHVINKFRNQQFLFICIVAALFSILGTTGIIVNSVIGFIPIGIIVARTLKWDAIVGVAIIYLGTYAGFNATILSPSPLGISQKIAELPMFSGIGLRTAIYLSFLLATILYINWYVKRLKKSNKGSILGDNWFPSNALSSGKEAQKTEVPWTIRHKLILLVSALSLITFLIGAFRLHWTDAEMTATFIFIAITAGIIGGMKANDIASTFLAGCQNLIYGALIVGMARCISVILEQGKLLDTIVNQLAQSLEGQSPVFGVIGMYVSSAALHFLISSGTGESVIFIPILAPLADFMHITRQVTVQAVMLGEGVVNCLNPTSGVLMGVLAASGISYGKWIRFMAPLAFIWFIIGLIFLIVGVNIEWGPY”, the protein production result is “failed”.

Turning to “MQLTSENYYSQEANKEYMSVSGYKDFAGTYGKMPCEFYGMEKLNGRWEDEKSTALLVGSYVDSYFEGSLDQFKKDNPEIFTQKGELKANFKQAEEIIARIERDEYFMKYMSGQKQVIMTGELFGAKWKIKMDSYIPGVAIVDLKVMASITDLKWVKDIGYLDFVRYWGYDIQGAVYQEIVRQNTGEKLPFFIAGATKQTEPDIRIIHVTDNYLQEALHMVEMNMPRILRVKNGEVEPDRCELCDCCRHNRVLKKPISIMDLTAGI”, the protein production result is “not failed”.

On to “MQMSEKFKQIRARLRLPVLVAPMLRISGPALVAASCSNGVIGSFPTVNARTPDQLDRWIDEIKQAVSAAGAYDAPYCANILARSDPDKLQADLKILIKHKVEIVLVSTGAPEKYVKPLQDIGCFVIADVASIRHARKALQQGVDGLALLTAGAGGQTGWANGFAFVRAIRDFYDGPLLLAGGVSDGQALWAARTLGCDLGLMGTRFIGTQECDASDGYKAMLVDSSIDDVVLTRGISGIDANFLRPSIIACGLDPQELVAPVSPERAREMFSSYADGMRGPKRWVDLWSAGHTVSGVKVVQSVSEVVDQLAVEYTRAQRATRAPLADADDPAI”, for which the protein production entry is “failed”.

Consider “MQNIAVHEASTLMRYISNAIGSIRDPQELFRTVTDKLRLVFEFDSAFIITLDRDRRFINVVFEMVRFDLPDTIQRKKRPVAGSWIESHLGDEGVSVVAIEGEMDRYPADFPVPRMLYDLGMRQVVLSPLRSGGKVIGFLNFVSREQKQWKESDKELLSTLSSPVAVALSSALAYEELRQREA”, for which the protein production entry was “failed”.

In the case of “MQNNKTKLLDEVATYYAEKLAEHGDTPRGVDWNGEESQTIRFEQLCKVIDPKKMPGFSLNDLGCGYGALLDYLRDKYAACIYLGVDVSHEMIKAARQRHTAANQARFITSTEPDQVADYGVASGIFNVRLERTDAEWFDYLLGTLDVLNRTSSLGFAFNCLTSYSDEDKKRDYLYYADPCRLFDLCKRRYSRQVALLHDYGLYEFTILIRKALEHHHHHH”, the protein production entry is “failed”.

In the case of “MQPDTQEIVVDEVFPHAPETIWKTLTTAELMGRWLMMPAGFEPIEGKRFTYQTTPAGDWDGTIHCQVLEVKPNERLTYAWKGGHAGNTGYGSPLDTVVTFILSRAGNGTRLRLVHSGFVLPKNETAYRKMGEGWKKVVKNIGALAGGEDLEHHHHHH”, the protein production result was “failed”.

For the sequence “MQPIELAELLTSQAAVLTSLVVIGLILCFIGYKIFRVYSAVIGLFIGQLVGIYITINYYENALIVILASAIVGALLFALIDELGLIVTGAAFGYFVGVYLLPEYQVYAFVLAALFALINLFIEKPLTVLITSVIGASAIALAVHMGITGTHIYDILNDPKKVFDAIFSNAYFDLLWFTLVLTGIITQYVTYKEEREEEE”, the protein production entry was “failed”.

For “MQPISILFLGIDDNDGRRKKGQDAEHSRSDAMILTTFNQSKHQIRMLSIPRDTISYIPKVGYYDKITHAHAYGGPIAAMDSVEATMNVPVDYYVRVNMKAFVEAVNELGGIYYDVPYDLNEPNTDDTGKIKIKKGYQKLNGDEALAVARTRHHDSDLKRGQRQMELIKILFQKAQEVDSIDKLDNVIQIVGKNAKHNLTNSEIKALAKMYLTNDVEIKTAQLKGKDDMLNGIYYYHPSVESIQKYANLLRKDLELSPINDKNDFLDQRVINHYGSLIPLTPLDSSLLRLEHHHHHH”, the protein production entry is listed as “not failed”.

As to “MQPTGNQIQQNQQQQQQLIMRVPKQEVSVSGAARRYVQQAPPNRPPRQNHQNGAIGGKKSSVTIQEVPNNAYLETLNKSGNNKVDDDKLPVFLIKLWNIVEDPNLQSIVHWDDSGASFHISDPYLFGRNVLPHFFKHNNMNSMVRQLNMYGFRKMTPLSQGGLTRTESDQDHLEFSHPCFVQGRPELLSQIKRK”, the protein production entry was “not failed”.

In the case of “MQPTGNQIQQNQQQQQQLIMRVPKQEVSVSGAARRYVQQAPPNRPPRQNHQNGAIGGKKSSVTIQEVPNNAYLETLNKSGNNKVDDDKLPVFLIKLWNIVEDPNLQSIVHWDDSGASFHISDPYLFGRNVLPHFFKHNNMNSMVRQLNMYGFRKMTPLSQGGLTRTESDQDHLEFSHPCFVQGRPELLSQIKRKQSARTVEDKQVNEQTQQNLEVVMAEMRAMREKAKNMEDKMNKLTKENRDMWTQMGSMRQQHARQQQYFKKLLHFLVSVMQPG”, the protein production entry is “failed”.

Consider “MQQKDAVPDTAKKLKAPLTGLKTEQKVTERRPVAVVVNNHPKARPQSGLSKADIVIEALAEGQITRFLAIFQSQMPETVGPVRSAREYFVTLSNGFDSIFVHHGWSPGAKKQLESGAADYMNGLDFDGSLFWRADFSKPPHNSYTSYDYIKKAAEQKGYKLKQETNPLLFQTSDAKPANESYNVRVDYGTNNVTNLVEYNYDKKAEFYTRSSDGVITTDRETGKPVAMQNIFIVEASHHIIDQDGRRDIDLESGGKGLLFQHGNVIETDWKQVNGRIVPVKDGKWLPFVPGKTWINIVPDLDAASISKGEGVLEHHHHHH”, for which the protein production entry is “not failed”.

Regarding “MQQLQNVIETAFERRADITPANVDTVTREAITHVIDLLDTGALRVAEKIDGQWVTHQWLKKAVLLSFRINDNQVMEGAETRYYDKVPMKFAGYDEARFQREGFRVVPPATVRKGAFIARNTVLMPSYVNIGAFVDEGTMVDTWATVGSCAQIGKNVHLSGGVGIGGVLEPLQANPTIIEDNCFVGARSEVVEGVIVEEGSVISMGVFIGQSTRIYDRETGEVHYGRVPAGSVVVSGNLPSKDGSYSLYCAVIVKKVDAKTRSKVGINELLRTID”, the protein production result is recorded as “not failed”.

For the sequence “MQQYAPTIQRALLFGLLIILLLLGFHILKYFIVPVVWAAIIAYMTWPIYIGIQRFCGENRPNLSATLMISLIILVIGIPLTFAVFMLQHEGRNLFIELQQQIFSGHLSAPDFIRELPLVGNEITRILNEINTNPSNLTQNLSLWIQSHMGYGRFVLSEISKNLVKLCFALLSLFFFYRDGHTILNQVSKALEMVIGPRIHHYMDTISETTRAVVYGVGLTAVAQAILAGLSYFVAGVPNPMVLTIVTFLLALIPFGTPLAYTSVALWLFSQGQMMGAIGVMLWGVCIVSTSDNVIRPLVISGATQIPFLLIMFGVLGGLASFGLVGLFIGPVILAILLAIWREWLHENIEPEPVPKATLIYDDLDDQTKL”, the protein production entry is on record as “failed”.

On to “MQRAAVFDVDGTLVDTNHLHVTTWWEAFRQAGHRVPMHAVHRAVGLASGDLVARLLGEDRDKEQDAELSAAHKALYGQYFDRLPALPGAGDLLRRLAADGWTVVLATSAGGSELGALRRAIDADDAIEATASADDVDAGKPAPEPVEHALELAGVPAERAVFVGDTVWDMRAGSRAGVRCVGVLCGGLPRADLEEAGAEAVYADPADLLASLRGSPLA”, for which the protein production result was “failed”.

For “MQRANREHLEIISLEEISMLVSSDFDLPEVLQHVTAKVATQLKVSVCNIYLREGDEVVLAATHGFDPAFIGKIRIKIGDGITGSVARDGQYISLSRASQDPRYRYFPELQEEKYNSMLSFPIGDKKEVYGVINLNTTSIRSFHEDEIYFVSIIANLILTAIKLRQQVASSRKAAEASA”, the protein production entry is listed as “not failed”.

Regarding “MQRDVSSCNTYNYGDALYWDARYVQDALSFDWYQCYSSLRPFVRSFVSTSSRVLMVGCGNSLMSEDMVKDGYEDIMNVDISSVAIEMMQTKYASVPQLKYMQMDVRDMSYFEDDSFDTIIDKGTLDSLMCGSDALLSASRMLGEVSRLIKPGGTYFLITYGDPKVRMPHLTRSAYNWKISLYIIPRPGFKRPESCSSSAKSCMEAIPITSEGMLPHDYVLEDPDSHFIYICKKKDEDEEAQLPSYPLMEDVL”, the protein production result was “failed”.
